# Data: the supplement of paper PMC10567573
# B1: KRT71 (parent)
# chain: ELRNVQDVVEDYKKRYEEEINKRT
# B2: RHOBTB3 (parent)
# chain: QLQSMPSRELASMNLDIVDLLKKA
# Variants of: B1
# Test: protein stability index of a GFP-peptide fusion (GPS, HEK-293T) (PSI 1-6); higher = more stable
# Details: c terminus: a fixed tail appended
# 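Further: lentivirally expressed fusions sorted by FACS into six bins by GFP to DsRed ratio, PSI derived from sequencing read proportions per bin multiplied by bin number.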
row,Variant,protein stability index
1,ELRNVQDVVEDYKKRYEEEINKQT,3.83
2,ELRNVQDVVEDYKKRYEEEINKLT,3.63
3,ELRNVQDVVEDYKKRYEEEINKGT,4.1
4,ELRNVQDVVEDYKKRYEEEINKYT,3.98
5,ELRNVQDVVEDYKKRYEEEINKKT,4.2
6,ELRNVQDVVEDYKKRYEEEINKHT,4.09
7,ELRNVQDVVEDYKKRYEEEINKST,4.27
8,ELRNVQDVVEDYKKRYEEEINKTT,4.69
9,ELRNVQDVVEDYKKRYEEEINKIT,3.72
10,ELRNVQDVVEDYKKRYEEEINKFT,3.71
11,ELRNVQDVVEDYKKRYEEEINKCT,3.84
12,ELRNVQDVVEDYKKRYEEEINKAT,3.34
13,ELRNVQDVVEDYKKRYEEEINKET,4.63
14,ELRNVQDVVEDYKKRYEEEINKNT,4.11
15,ELRNVQDVVEDYKKRYEEEINKMT,3.03
16,ELRNVQDVVEDYKKRYEEEINKVT,3.93
17,ELRNVQDVVEDYKKRYEEEINKPT,3.56
18,ELRNVQDVVEDYKKRYEEEINKRN,3.14
19,ELRNVQDVVEDYKKRYEEEINKRV,3.69
20,ELRNVQDVVEDYKKRYEEEINKRA,3.08
21,ELRNVQDVVEDYKKRYEEEINKRY,3.18
22,ELRNVQDVVEDYKKRYEEEINKRF,2.85
23,ELRNVQDVVEDYKKRYEEEINKRG,3.94
24,ELRNVQDVVEDYKKRYEEEINKRK,4.43
25,ELRNVQDVVEDYKKRYEEEINKRM,3.54
26,ELRNVQDVVEDYKKRYEEEINKRE,4.57
27,ELRNVQDVVEDYKKRYEEEINKRQ,4.56

row,Variant,protein stability index
1,ELRNVQDVVEDYKKRYEEEINKRP,4.39
2,ELRNVQDVVEDYKKRYEEEINKRI,4.02
3,ELRNVQDVVEDYKKRYEEEINKRS,3.4
4,ELRNVQDVVEDYKKRYEEEINKRR,4.41
5,ELRNVQDVVEDYKKRYEEEINKRW,3.62
6,ELRNVQDVVEDYKKRYEEEINKRD,4.64
7,ELRNVQDVVEDYKKRYEEEINKRL,3.58
8,ELRNVQDVVEDYKKRYEEEINIRT,3.28
9,ELRNVQDVVEDYKKRYEEEINCRT,4.19
10,ELRNVQDVVEDYKKRYEEEINPRT,3.47
11,ELRNVQDVVEDYKKRYEEEINART,3.74
12,ELRNVQDVVEDYKKRYEEEINFRT,4.47
13,ELRNVQDVVEDYKKRYEEEINHRT,3.68
14,ELRNVQDVVEDYKKRYEEEINDRT,3.57
15,ELRNVQDVVEDYKKRYEEEINWRT,3.9
16,ELRNVQDVVEDYKKRYEEEINMRT,3.92
17,ELRNVQDVVEDYKKRYEEEINYRT,3.43
18,ELRNVQDVVEDYKKRYEEEINTRT,4.15
19,ELRNVQDVVEDYKKRYEEEINLRT,3.28
20,ELRNVQDVVEDYKKRYEEEINQRT,4.35
21,ELRNVQDVVEDYKKRYEEEINGRT,3.27
22,ELRNVQDVVEDYKKRYEEEINERT,3.43
23,ELRNVQDVVEDYKKRYEEEINRRT,4.21
24,ELRNVQDVVEDYKKRYEEEINNRT,4.11
25,ELRNVQDVVEDYKKRYEEEIYKRT,3.65
26,ELRNVQDVVEDYKKRYEEEIVKRT,4.3

# Variants of: B2
# Test: as above
# Details: c terminus: a fixed tail appended
row,Variant,protein stability index
1,QLLSMPSRELASMNLDIVDLLKKA,2.68
2,QLRSMPSRELASMNLDIVDLLKKA,4.02
3,QLYSMPSRELASMNLDIVDLLKKA,2.75
4,QLWSMPSRELASMNLDIVDLLKKA,2.48
5,QLTSMPSRELASMNLDIVDLLKKA,3.38
6,QLVSMPSRELASMNLDIVDLLKKA,2.98
7,QLGSMPSRELASMNLDIVDLLKKA,3.85
8,QLPSMPSRELASMNLDIVDLLKKA,4.39
9,QLNSMPSRELASMNLDIVDLLKKA,2.56
10,QLISMPSRELASMNLDIVDLLKKA,3.18
11,QLFSMPSRELASMNLDIVDLLKKA,2.62
12,QLSSMPSRELASMNLDIVDLLKKA,3.44
13,QLDSMPSRELASMNLDIVDLLKKA,3.5
14,QLMSMPSRELASMNLDIVDLLKKA,3.35
15,QLESMPSRELASMNLDIVDLLKKA,3.7
16,YLQSMPSRELASMNLDIVDLLKKA,2.98
17,TLQSMPSRELASMNLDIVDLLKKA,3.66
18,FLQSMPSRELASMNLDIVDLLKKA,2.95
19,CLQSMPSRELASMNLDIVDLLKKA,2.86
20,GLQSMPSRELASMNLDIVDLLKKA,3.51
21,MLQSMPSRELASMNLDIVDLLKKA,3.38
22,ALQSMPSRELASMNLDIVDLLKKA,3.43
23,SLQSMPSRELASMNLDIVDLLKKA,2.75

row,Variant,protein stability index
1,KLQSMPSRELASMNLDIVDLLKKA,4.12
2,LLQSMPSRELASMNLDIVDLLKKA,2.55
3,WLQSMPSRELASMNLDIVDLLKKA,2.62
4,PLQSMPSRELASMNLDIVDLLKKA,4.72
5,HLQSMPSRELASMNLDIVDLLKKA,2.92
6,ILQSMPSRELASMNLDIVDLLKKA,2.71
7,ELQSMPSRELASMNLDIVDLLKKA,3.01
8,VLQSMPSRELASMNLDIVDLLKKA,2.98
9,RLQSMPSRELASMNLDIVDLLKKA,3.72
10,NLQSMPSRELASMNLDIVDLLKKA,3.65
11,QPQSMPSRELASMNLDIVDLLKKA,4.72
12,QMQSMPSRELASMNLDIVDLLKKA,3.83
13,QFQSMPSRELASMNLDIVDLLKKA,3.04
14,QDQSMPSRELASMNLDIVDLLKKA,4
15,QKQSMPSRELASMNLDIVDLLKKA,3.18
16,QEQSMPSRELASMNLDIVDLLKKA,4.29
17,QAQSMPSRELASMNLDIVDLLKKA,3.21
18,QQQSMPSRELASMNLDIVDLLKKA,3.78
19,QTQSMPSRELASMNLDIVDLLKKA,3.55
20,QNQSMPSRELASMNLDIVDLLKKA,3.71
21,QVQSMPSRELASMNLDIVDLLKKA,2.77
22,QWQSMPSRELASMNLDIVDLLKKA,3.31
23,QYQSMPSRELASMNLDIVDLLKKA,4.34

row,Variant,protein stability index
1,QRQSMPSRELASMNLDIVDLLKKA,3.47
2,QCQSMPSRELASMNLDIVDLLKKA,4.45
3,QIQSMPSRELASMNLDIVDLLKKA,3.16
4,QLQSMPSAELASMNLDIVDLLKKA,4.22
5,QLQSMPSGELASMNLDIVDLLKKA,3.71
6,QLQSMPSQELASMNLDIVDLLKKA,3.85
7,QLQSMPSFELASMNLDIVDLLKKA,2.65
8,QLQSMPSWELASMNLDIVDLLKKA,2.58
9,QLQSMPSEELASMNLDIVDLLKKA,4.28
10,QLQSMPSHELASMNLDIVDLLKKA,3.94
11,QLQSMPSSELASMNLDIVDLLKKA,3.99
12,QLQSMPSKELASMNLDIVDLLKKA,3.38
13,QLQSMPSCELASMNLDIVDLLKKA,3.85
14,QLQSMPSIELASMNLDIVDLLKKA,2.33
15,QLQSMPSDELASMNLDIVDLLKKA,4.11
16,QLQSMPSLELASMNLDIVDLLKKA,2.35
17,QLQSMPSVELASMNLDIVDLLKKA,3.83
18,QLQSMPSMELASMNLDIVDLLKKA,3.2
19,QLQSMPSPELASMNLDIVDLLKKA,3.22
20,QLQRMPSRELASMNLDIVDLLKKA,3.06
21,QLQHMPSRELASMNLDIVDLLKKA,3.24
22,QLQAMPSRELASMNLDIVDLLKKA,3
23,QLQYMPSRELASMNLDIVDLLKKA,3.75

row,Variant,protein stability index
1,QLQEMPSRELASMNLDIVDLLKKA,4.83
2,QLQWMPSRELASMNLDIVDLLKKA,3.6
3,QLQFMPSRELASMNLDIVDLLKKA,3.19
4,QLQNMPSRELASMNLDIVDLLKKA,2.78
5,QLQTMPSRELASMNLDIVDLLKKA,3.64
6,QLQKMPSRELASMNLDIVDLLKKA,3.08
7,QLQDMPSRELASMNLDIVDLLKKA,3.82
8,QLQMMPSRELASMNLDIVDLLKKA,3.28
9,QLQLMPSRELASMNLDIVDLLKKA,3.23
10,QLQVMPSRELASMNLDIVDLLKKA,3.11
11,QLQIMPSRELASMNLDIVDLLKKA,3.78
12,QLQCMPSRELASMNLDIVDLLKKA,3.54
13,QLQPMPSRELASMNLDIVDLLKKA,3.54
14,QLQGMPSRELASMNLDIVDLLKKA,3.82
15,QLQSMGSRELASMNLDIVDLLKKA,2.91
16,QLQSMCSRELASMNLDIVDLLKKA,2.5
17,QLQSMTSRELASMNLDIVDLLKKA,3.46
18,QLQSMQSRELASMNLDIVDLLKKA,3
19,QLQSMNSRELASMNLDIVDLLKKA,3.55
20,QLQSMASRELASMNLDIVDLLKKA,3.19
21,QLQSMKSRELASMNLDIVDLLKKA,3.77
22,QLQSMRSRELASMNLDIVDLLKKA,3.25
23,QLQSMFSRELASMNLDIVDLLKKA,1.93

row,Variant,protein stability index
1,QLQSMVSRELASMNLDIVDLLKKA,2.14
2,QLQSMWSRELASMNLDIVDLLKKA,1.85
3,QLQSMYSRELASMNLDIVDLLKKA,1.88
4,QLQSMDSRELASMNLDIVDLLKKA,3.38
5,QLQSMHSRELASMNLDIVDLLKKA,2.05
6,QLQSMLSRELASMNLDIVDLLKKA,2.2
7,QLQSMISRELASMNLDIVDLLKKA,2.03
8,QLQSFPSRELASMNLDIVDLLKKA,3.33
9,QLQSIPSRELASMNLDIVDLLKKA,2.95
10,QLQSSPSRELASMNLDIVDLLKKA,3.76
11,QLQSWPSRELASMNLDIVDLLKKA,2.07
12,QLQSTPSRELASMNLDIVDLLKKA,3.94
13,QLQSRPSRELASMNLDIVDLLKKA,3.46
14,QLQSEPSRELASMNLDIVDLLKKA,3.54
15,QLQSGPSRELASMNLDIVDLLKKA,2.58
16,QLQSHPSRELASMNLDIVDLLKKA,3.43
17,QLQSLPSRELASMNLDIVDLLKKA,3.88
18,QLQSNPSRELASMNLDIVDLLKKA,2.78
19,QLQSCPSRELASMNLDIVDLLKKA,3.23
20,QLQSYPSRELASMNLDIVDLLKKA,2.01
21,QLQSPPSRELASMNLDIVDLLKKA,3.54
22,QLQSAPSRELASMNLDIVDLLKKA,3.04
23,QLQSDPSRELASMNLDIVDLLKKA,3.78

row,Variant,protein stability index
1,QLQSQPSRELASMNLDIVDLLKKA,3.69
2,QLQSVPSRELASMNLDIVDLLKKA,3.32
3,QLQSKPSRELASMNLDIVDLLKKA,4.06
4,QLQSMPDRELASMNLDIVDLLKKA,3.9
5,QLQSMPHRELASMNLDIVDLLKKA,4.55
6,QLQSMPIRELASMNLDIVDLLKKA,2.42
7,QLQSMPERELASMNLDIVDLLKKA,3.48
8,QLQSMPNRELASMNLDIVDLLKKA,2.98
9,QLQSMPRRELASMNLDIVDLLKKA,4.13
10,QLQSMPKRELASMNLDIVDLLKKA,2.97
11,QLQSMPWRELASMNLDIVDLLKKA,5
12,QLQSMPCRELASMNLDIVDLLKKA,2.69
13,QLQSMPYRELASMNLDIVDLLKKA,3
14,QLQSMPPRELASMNLDIVDLLKKA,4.46
15,QLQSMPMRELASMNLDIVDLLKKA,2.51
16,QLQSMPGRELASMNLDIVDLLKKA,2.66
17,QLQSMPQRELASMNLDIVDLLKKA,3.77
18,QLQSMPARELASMNLDIVDLLKKA,3.59
19,QLQSMPLRELASMNLDIVDLLKKA,2.56
20,QLQSMPTRELASMNLDIVDLLKKA,4.35
